Paper PMC11323322

Tests used:
[1] = tested on: CIL-6A6-1A (DNA, G4, circular) ATCTCGACTAGTCAGTGGTGGATATGTGCACACTGTTGTGAACGTATGGTTGTCTCGGATTGGTTGTCTCGGAT; experiment: fluorescence enhancement
[2] = tested on: AIR-3A (RNA, G4) GGGGAGGCUGUGGUGAGGG; experiment: fluorescence enhancement
[3] = tested on: CIL-6A6-1 (DNA, G4, circular (5' and 3' ends ligated)) ATCTCGACTAGTCAGTGGTGGATATGGGGAGGCTGTGGTGAGGGTATGGTTGTCTCGGATTGGTTGTCTCGGAT; experiment: fluorescence enhancement
[4] = target: T1, sIL-6R (soluble IL-6 receptor alpha) (human, UniProt P08887 20-355); experiment: pull-down, real-time PCR; 1x PBSMT pH 7.2: 137 mM NaCl, 2.68 mM KCl, 8.1 mM Na2HPO4, 1.76 mM KH2PO4, 1 mM MgCl2, 0.025% Tween-20; pull-down 1 h (room temperature in SELEX); MST at 25 C; conditions: protein: commercial; circular
T1 sequence (P08887 20-355): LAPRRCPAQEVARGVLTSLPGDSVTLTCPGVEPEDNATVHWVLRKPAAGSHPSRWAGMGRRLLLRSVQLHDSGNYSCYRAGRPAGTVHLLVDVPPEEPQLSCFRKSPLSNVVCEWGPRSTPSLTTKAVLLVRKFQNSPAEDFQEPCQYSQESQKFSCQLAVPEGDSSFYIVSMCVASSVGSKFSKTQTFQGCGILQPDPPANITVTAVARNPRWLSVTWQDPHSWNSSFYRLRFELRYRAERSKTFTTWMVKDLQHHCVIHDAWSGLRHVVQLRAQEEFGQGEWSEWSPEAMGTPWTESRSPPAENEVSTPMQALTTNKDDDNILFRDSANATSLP

IL-6 (interleukin-6) [5] = target: T2, IL-6 (interleukin-6) (human, UniProt P05231 30-212); experiment: as above; conditions: protein: commercial; circular
T2 sequence (P05231 30-212): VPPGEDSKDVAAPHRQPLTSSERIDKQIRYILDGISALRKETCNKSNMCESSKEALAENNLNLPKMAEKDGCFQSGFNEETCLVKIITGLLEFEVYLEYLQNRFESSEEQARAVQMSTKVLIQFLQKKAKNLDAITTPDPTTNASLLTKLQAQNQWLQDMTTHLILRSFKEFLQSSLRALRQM

IL-6 (interleukin-6) [6] = target: T2, IL-6 (interleukin-6); experiment: pull-down, real-time PCR; fully functional; 1x PBSMT pH 7.2: 137 mM NaCl, 2.68 mM KCl, 8.1 mM Na2HPO4, 1.76 mM KH2PO4, 1 mM MgCl2, 0.025% Tween-20; pull-down 1 h (room temperature in SELEX); MST at 25 C; conditions: protein: commercial; circular
[7] = target: T1, sIL-6R (soluble IL-6 receptor alpha); experiment: as above; conditions: protein: commercial; circular
IL-6 (interleukin-6) [8] = target: T2, IL-6 (interleukin-6); experiment: pull-down, real-time PCR; smaller Kd than CIL-6A; value only in figure; 1x PBSMT pH 7.2: 137 mM NaCl, 2.68 mM KCl, 8.1 mM Na2HPO4, 1.76 mM KH2PO4, 1 mM MgCl2, 0.025% Tween-20; pull-down 1 h (room temperature in SELEX); MST at 25 C; conditions: protein: commercial; circular; two putative antiparallel G4 motifs
[9] = target: T1, sIL-6R (soluble IL-6 receptor alpha); experiment: as above; conditions: protein: commercial; circular; two putative antiparallel G4 motifs
IL-6 (interleukin-6) [10] = target: T2, IL-6 (interleukin-6); experiment: MST; 1x PBSMT pH 7.2: 137 mM NaCl, 2.68 mM KCl, 8.1 mM Na2HPO4, 1.76 mM KH2PO4, 1 mM MgCl2, 0.025% Tween-20; pull-down 1 h (room temperature in SELEX); MST at 25 C; conditions: protein: commercial; linear
[11] = target: T1, sIL-6R (soluble IL-6 receptor alpha); experiment: as above; conditions: protein: commercial
IL-6 (interleukin-6) [12] = target: T2, IL-6 (interleukin-6); experiment: pull-down, real-time PCR; affinity largely retained; 1x PBSMT pH 7.2: 137 mM NaCl, 2.68 mM KCl, 8.1 mM Na2HPO4, 1.76 mM KH2PO4, 1 mM MgCl2, 0.025% Tween-20; pull-down 1 h (room temperature in SELEX); MST at 25 C; conditions: protein: commercial; circular
[13] = order of intensities similar to ThT

CCc1c(C)c2cc3nc(cc4nc(cc5c(CC)c(C)c(cc1[nH]2)n5C)C(C)=C4CCC(=O)O)C(CCC(=O)O)=C3C
binding [1, 13]: yes
binding [2, 13]: yes
binding ([3]; fluorescence decreased by added 50 and 100 mM Li+): yes

Cc1ccc2c(c1)sc(-c1ccc(N(C)C)cc1)[n+]2C
binding ([1]; excitation 425 nm, intensity below CIL-6A6-1): yes
binding ([2]; excitation 425 nm, second highest intensity, with or above CIL-6A6-1A): yes
binding ([3]; excitation 425 nm, highest intensity of the five sequences): yes

B1: CIL-6B (ssDNA)
DNA: ATCTCGACTAGTCAGGTGTTGTAATGGTAAGGGGAGGCTGTGGTGAGGGTTGGTTGTCACGGATAGTTGTGTCTCGGAT
modifications: circular
binding result [4]: binds

B2: CIL-6A4-1 (ssDNA)
DNA: ATCTCGACTAGTCAGGGATACCGGATGGGGAGGCTGTGGTGAGGGTATGGTTGTCTCGGATTGGTTGTCTCGGAT
modifications: circular
binding result (IL-6 (interleukin-6) [5]): binds
binding result [4]: binds

B3: CIL-6A46 (ssDNA)
DNA: ATCTCGACTAGTCAGGGATATGGGGAGGCTGTGGTGAGGGTATGGTTGTCTCGGATTGGTTGTCTCGGAT
modifications: circular
binding result (IL-6 (interleukin-6) [5]): binds
binding result [4]: binds

B4: CIL-6A (ssDNA)
DNA: ATCTCGACTAGTCAGTGGTGGATACCGGATGGGGAGGCTGTGGTGAGGGTATGGTTGTCTCGGATTGGTTGTCTCGGAT
modifications: circular (5'-3' ligated)
Kd (IL-6 (interleukin-6) [5]): 8.5 nM
Kd [4]: 6.9 nM

B5: CIL-6A6 (ssDNA)
DNA: ATCTCGACTAGTCAGTGGTGGATATTTTTTGGGGAGGCTGTGGTGAGGGTATGGTTGTCTCGGATTGGTTGTCTCGGAT
modifications: circular
binding result (IL-6 (interleukin-6) [6]): binds
binding result [7]: binds

B6: CIL-6A4 (ssDNA)
DNA: ATCTCGACTAGTCAGTTTTGGATACCGGATGGGGAGGCTGTGGTGAGGGTATGGTTGTCTCGGATTGGTTGTCTCGGAT
modifications: circular
binding result (IL-6 (interleukin-6) [6]): binds
binding result [7]: binds

B7: CIL-6D (ssDNA)
DNA: ATCTCGACTAGTTAGACGCTACGTGCGGATGGGGAGGCTGTGGTGAGGGTTGGTGTTCTCGGATGATGGTGTCTCGGAT
modifications: circular
binding result [4]: binds

B8: CIL-6A6-1 (structured_DNA)
DNA: ATCTCGACTAGTCAGTGGTGGATATGGGGAGGCTGTGGTGAGGGTATGGTTGTCTCGGATTGGTTGTCTCGGAT
modifications: circular
Kd (IL-6 (interleukin-6) [8]): < 8.5 nM
Kd [9]: < 6.9 nM

B9: IL-6A6-1 (linear form of CIL-6A6-1) (ssDNA)
DNA: ATCTCGACTAGTCAGTGGTGGATATGGGGAGGCTGTGGTGAGGGTATGGTTGTCTCGGATTGGTTGTCTCGGAT
modifications: linear
binding result (IL-6 (interleukin-6) [10]): no binding
binding result ([11]; linear): no binding

B10: CIL-6C (ssDNA)
DNA: ATCTCGACTAGTCATATGGTGTAGATCCTTGGGGAGGCTGTGGTGAGGGGGTTGAAGGTAGTTGCTCGTTGTCTCGGAT
modifications: circular
binding result (IL-6 (interleukin-6) [5]): binds
binding result [4]: binds

B11: CIL-6A-C (ssDNA)
DNA: ATCTCGACTAGTCAGTGGTGGATACCGGATTTTTTTTTTTTTTTTTTTTTATGGTTGTCTCGGATTGGTTGTCTCGGAT
modifications: circular
binding result [4]: no binding
binding result (IL-6 (interleukin-6) [12]): binds

GGGGAGGCUGUGGUGAGGG (structured_RNA) [AIR-3A]
Kd ([11]; G4, 2-tiered): 67.5 nM

B12: CIL-6A-R (ssDNA)
DNA: ATCTCGACTATTTTTTTTTTTTTTTTTTTTGGGGAGGCTGTGGTGAGGGTTTTTTTTTTTTTTTTTTTTTGTCTCGGAT
modifications: circular
binding result (IL-6 (interleukin-6) [5]): no binding
